Reference: the Human Domainome abundance scans (Beltran et al. 2025)
± gives the uncertainty stated by the source.

B1: POU domain, class 2, transcription factor 1, residues 285 to 354; numbered along this chain, P14859 (parent)
chain: LEELEQFAKTFKQRRIKLGFTQGDVGLAMGKLYGNDFSQTTISRFEALNLSFKNMCKLKPLLEKWLNDAE

Variants of: B1
Assay: abundance fitness (aPCA) (normalised: wild type 0, dead -1); higher = more abundant; growth selection in yeast, the domain comes from the species named
Details: Homo sapiens

Question: For LEELEQFAKTFKQRRIKLGFTQGDVGLAMGKLYGNDFSQTTISRFEALNLSFKNMCKLKPRLEKWLNDAE [L61R], which abundance fitness is on record?
Answer: 0.008 ± 0.047

Question: With LEELEQFAKTFKQRRIKLGFTQGDVGLAMGKLYGNDFSQTTISRFEALNLSFKNMCKLKPVLEKWLNDAE [L61V] as the variant, how does the abundance fitness read?
Answer: -0.008 ± 0.025

Question: With LEELEQFAKTFKQRRIKLGFTQGDVGLAMGKLYGNDFSQTTISRFEALNLSFKNMCKLKPGLEKWLNDAE [L61G] as the variant, how does the abundance fitness read?
Answer: -0.09 ± 0.036

Question: With LEELEQFAKTFKQRRIKLGFTQGDVGLAMGKLYGNDFSQTTISRFEALNLSFKNMCKLKPILEKWLNDAE [L61I] as the variant, how does the abundance fitness read?
Answer: -0.097 ± 0.084

Question: For LEELEQFAKTFKQRRIKLGFTQGDVGLAMGKLYGNDFSQTTISRFEALNLSFKNMCKLKPQLEKWLNDAE [L61Q], which abundance fitness is on record?
Answer: -0.053 ± 0.047

Question: For LEELEQFAKTFKQRRIKLGFTQGDVGLAMGKLYGNDFSQTTISRFEALNLSFKNMCKLKPSLEKWLNDAE [L61S], which abundance fitness is on record?
Answer: -0.078 ± 0.033

Question: Which abundance fitness does the source give for LEELEQFAKTFKQRRIKLGFTQGDVGLAMGKLYGNDFSQTTISRFEALNLSFKNMCKLKPCLEKWLNDAE [L61C] here?
Answer: -0.188 ± 0.052

Question: For LEELEQFAKTFKQRRIKLGFTQGDVGLAMGKLYGNDFSQTTISRFEALNLSFKNMCKLKPKLEKWLNDAE [L61K], which abundance fitness is on record?
Answer: -0.031 ± 0.042

Question: Which abundance fitness does the source give for LEELEQFAKTFKQRRIKLGFTQGDVGLAMGKLYGNDFSQTTISRFEALNLSFKNMCKLKPLLLKWLNDAE [E63L] here?
Answer: 0.024 ± 0.046

Question: Which abundance fitness does the source give for LEELEQFAKTFKQRRIKLGFTQGDVGLAMGKLYGNDFSQTTISRFEALNLSFKNMCKLKPLLTKWLNDAE [E63T] here?
Answer: -0.1 ± 0.12

Question: Which abundance fitness does the source give for LEELEQFAKTFKQRRIKLGFTQGDVGLAMGKLYGNDFSQTTISRFEALNLSFKNMCKLKPLLGKWLNDAE [E63G] here?
Answer: -0.023 ± 0.11

Question: Which abundance fitness does the source give for LEELEQFAKTFKQRRIKLGFTQGDVGLAMGKLYGNDFSQTTISRFEALNLSFKNMCKLKPLLVKWLNDAE [E63V] here?
Answer: -0.095 ± 0.086

Question: For LEELEQFAKTFKQRRIKLGFTQGDVGLAMGKLYGNDFSQTTISRFEALNLSFKNMCKLKPLLDKWLNDAE [E63D], which abundance fitness is on record?
Answer: -0.45 ± 0.36

Question: With LEELEQFAKTFKQRRIKLGFTQGDVGLAMGKLYGNDFSQTTISRFEALNLSFKNMCKLKPLLKKWLNDAE [E63K] as the variant, how does the abundance fitness read?
Answer: -0.126 ± 0.09

Question: Which abundance fitness does the source give for LEELEQFAKTFKQRRIKLGFTQGDVGLAMGKLYGNDFSQTTISRFEALNLSFKNMCKLKPLLNKWLNDAE [E63N] here?
Answer: -0.199 ± 0.26

Question: With LEELEQFAKTFKQRRIKLGFTQGDVGLAMGKLYGNDFSQTTISRFEALNLSFKNMCKLKPLLIKWLNDAE [E63I] as the variant, how does the abundance fitness read?
Answer: -0.22 ± 0.13

Question: With LEELEQFAKTFKQRRIKLGFTQGDVGLAMGKLYGNDFSQTTISRFEALNLSFKNMCKLKPLLPKWLNDAE [E63P] as the variant, how does the abundance fitness read?
Answer: -0.571 ± 0.19

Question: Which abundance fitness does the source give for LEELEQFAKTFKQRRIKLGFTQGDVGLAMGKLYGNDFSQTTISRFEALNLSFKNMCKLKPLLMKWLNDAE [E63M] here?
Answer: -0.031 ± 0.048

Question: With LEELEQFAKTFKQRRIKLGFTQGDVGLAMGKLYGNDFSQTTISRFEALNLSFKNMCKLKPLLQKWLNDAE [E63Q] as the variant, how does the abundance fitness read?
Answer: -0.07 ± 0.06

Question: For LEELEQFAKTFKQRRIKLGFTQGDVGLAMGKLYGNDFSQTTISRFEALNLSFKNMCKLKPLLAKWLNDAE [E63A], which abundance fitness is on record?
Answer: 0.07 ± 0.081

Question: With LEELEQFAKTFKQRRIKLGFTQGDVGLAMGKLYGNDFSQTTISRFEALNLSFKNMCKLKPLLSKWLNDAE [E63S] as the variant, how does the abundance fitness read?
Answer: -0.082 ± 0.11

Question: For LEELEQFAKTFKQRRIKLGFTQGDVGLAMGKLYGNDFSQTTISRFEALNLSFKNMCKLKPLLRKWLNDAE [E63R], which abundance fitness is on record?
Answer: -0.199 ± 0.1

Question: For LEELEQFAKTFKQRRIKLGFTQGDVGLAMGKLYGNDFSQTTISRFEALNLSFKNMCKLKPLLWKWLNDAE [E63W], which abundance fitness is on record?
Answer: -0.075 ± 0.15

Question: For LEELEQFAKTFKQRRIKLGFTQGDVGLAMGKLYGNDFSQTTISRFEALNLSFKNMCKLKPLLEKALNDAE [W65A], which abundance fitness is on record?
Answer: -0.432 ± 0.043

Question: With LEELEQFAKTFKQRRIKLGFTQGDVGLAMGKLYGNDFSQTTISRFEALNLSFKNMCKLKPLLEKCLNDAE [W65C] as the variant, how does the abundance fitness read?
Answer: -0.35 ± 0.17

Question: Which abundance fitness does the source give for LEELEQFAKTFKQRRIKLGFTQGDVGLAMGKLYGNDFSQTTISRFEALNLSFKNMCKLKPLLERWLNDAE [K64R] here?
Answer: -0.019 ± 0.028

Question: With LEELEQFAKTFKQRRIKLGFTQGDVGLAMGKLYGNDFSQTTISRFEALNLSFKNMCKLKPLLECWLNDAE [K64C] as the variant, how does the abundance fitness read?
Answer: -0.143 ± 0.068

Question: Which abundance fitness does the source give for LEELEQFAKTFKQRRIKLGFTQGDVGLAMGKLYGNDFSQTTISRFEALNLSFKNMCKLKPLLEHWLNDAE [K64H] here?
Answer: -0.1 ± 0.058

Question: With LEELEQFAKTFKQRRIKLGFTQGDVGLAMGKLYGNDFSQTTISRFEALNLSFKNMCKLKPLLEEWLNDAE [K64E] as the variant, how does the abundance fitness read?
Answer: -0.02 ± 0.029

Question: For LEELEQFAKTFKQRRIKLGFTQGDVGLAMGKLYGNDFSQTTISRFEALNLSFKNMCKLKPLLETWLNDAE [K64T], which abundance fitness is on record?
Answer: -0.04 ± 0.03

Question: With LEELEQFAKTFKQRRIKLGFTQGDVGLAMGKLYGNDFSQTTISRFEALNLSFKNMCKLKPLLEAWLNDAE [K64A] as the variant, how does the abundance fitness read?
Answer: -0.036 ± 0.025

Question: With LEELEQFAKTFKQRRIKLGFTQGDVGLAMGKLYGNDFSQTTISRFEALNLSFKNMCKLKPLLEPWLNDAE [K64P] as the variant, how does the abundance fitness read?
Answer: -0.387 ± 0.036

Question: Which abundance fitness does the source give for LEELEQFAKTFKQRRIKLGFTQGDVGLAMGKLYGNDFSQTTISRFEALNLSFKNMCKLKPLLEYWLNDAE [K64Y] here?
Answer: -0.225 ± 0.058

Question: Which abundance fitness does the source give for LEELEQFAKTFKQRRIKLGFTQGDVGLAMGKLYGNDFSQTTISRFEALNLSFKNMCKLKPLLEWWLNDAE [K64W] here?
Answer: -0.113 ± 0.033

Question: For LEELEQFAKTFKQRRIKLGFTQGDVGLAMGKLYGNDFSQTTISRFEALNLSFKNMCKLKPLLEQWLNDAE [K64Q], which abundance fitness is on record?
Answer: -0.011 ± 0.037

Question: For LEELEQFAKTFKQRRIKLGFTQGDVGLAMGKLYGNDFSQTTISRFEALNLSFKNMCKLKPLLEDWLNDAE [K64D], which abundance fitness is on record?
Answer: -0.037 ± 0.05

Question: With LEELEQFAKTFKQRRIKLGFTQGDVGLAMGKLYGNDFSQTTISRFEALNLSFKNMCKLKPLLESWLNDAE [K64S] as the variant, how does the abundance fitness read?
Answer: 0.011 ± 0.027

Question: With LEELEQFAKTFKQRRIKLGFTQGDVGLAMGKLYGNDFSQTTISRFEALNLSFKNMCKLKPLLENWLNDAE [K64N] as the variant, how does the abundance fitness read?
Answer: -0.022 ± 0.043

Question: Which abundance fitness does the source give for LEELEQFAKTFKQRRIKLGFTQGDVGLAMGKLYGNDFSQTTISRFEALNLSFKNMCKLKPLLEGWLNDAE [K64G] here?
Answer: -0.026 ± 0.03
